These results are taken from patent publication US20060094659A1.

The target in experiment [1] is CD44 on the surface of U937-C5aR cells and human neutrophils (human) (UniProt P16070). Description: Biacore SPR, U937-C5aR cells pretreated with 25 µg/ml anti-CD44, DBP immobilized. In general terms: In SPR one partner is held on a chip, and binding of the other changes the refractive index at the surface.
The target is the same in experiment [2]. The experiment is described as follows: AlexaFluor 488-labeled DBP binding to U937-C5aR cells pretreated with antibody, fluorescence.
The target of experiment [3] is annexin A2 on the surface of U937-C5aR cells and human neutrophils (human) (UniProt P07355). Described as above.
Chain of annexin A2 on the surface of U937-C5aR cells and human neutrophils (human) (P07355 2-339): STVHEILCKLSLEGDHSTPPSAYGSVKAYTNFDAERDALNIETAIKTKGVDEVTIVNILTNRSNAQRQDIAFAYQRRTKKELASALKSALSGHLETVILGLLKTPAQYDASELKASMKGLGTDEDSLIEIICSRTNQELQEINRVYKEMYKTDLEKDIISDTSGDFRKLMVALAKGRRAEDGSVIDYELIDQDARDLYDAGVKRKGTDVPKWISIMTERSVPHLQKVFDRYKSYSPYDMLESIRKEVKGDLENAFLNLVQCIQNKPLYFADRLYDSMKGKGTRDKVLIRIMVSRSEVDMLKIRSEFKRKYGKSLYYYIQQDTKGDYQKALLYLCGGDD
Experiment [4] concerns the target cell surface DBP binding site complex. The experiment is described as follows: Biacore SPR, U937-C5aR cells pretreated with 0.5 µM peptide 2, DBP immobilized (competitor: immobilized DBP).

Regarding “affinity-purified goat polyclonal anti-CD44 (N-18), Santa Cruz Biotechnology (antibody)”, the percent inhibition of cell binding to immobilized DBP in experiment [1] stood at 50%. The percent blocking of DBP binding to cells in experiment [2] came out at 50%. Regarding “affinity-purified goat polyclonal anti-annexin A2 (C-16), Santa Cruz Biotechnology (antibody)”, in experiment [3], the percent blocking of DBP binding to cells stood at 50%. NYGQAPLSLLVSYTKSYLSMVGS [DBP peptide 2 (residues 150-172)]: the percent inhibition of cell binding to immobilized DBP in experiment [4] turned out to be 50%.
